Reference: US8357523B2, “Beta-glucosidase variant enzymes and related polynucleotides” (Codexis, Inc., priority 2009, dated 2013)

B1: 213 (protein)
chain: STAIAQEGAGPAAILHPEKWPRPATQRLIDPAVEKRVDALLKQLSVEEKVGQVIQGDIGTITPEDLRKYPLGSILAGGDSGPNGDDRAPPKEWLDLADAFYRVSLEKRPGHTPIPVLFGIDAVHGHGNIGSATIFPHNIALGMTRDPELLRRIGEVTAEEMAATGIDWTFAPALSVVRDDRWGRTYEGFSEDPEIVASYSAAIVEGVQGKYGSKDFMAPGRIVASAKHFLADGGTDQGRDQGDARISEDELIRIHNAGYPPAIDAGVLTVMASFSSWQGIKHHGHKQLLTDVLKGQMGFNGFIVGDWNAHDQVPGCTKFNCPTSLIAGLDMYMAADSWKQLYENTLAQVKDGTIPMARLDDAVRRILRVKVLAGLFEKPAPKDRPGLPGLETLGSPEHRAVGREAVRKSLVLLKNDKGTLPLSPKARVLVAGDGADNIGKQSGGWTISWQGTGNRNDEFPGATSILGGIRDAVADAGGSVEFDVAGQYKTKPDVAIVVFGEEPYAEFQGDVETLEYQPDQKQDLALLKKLKDQGIPVVAVFLSGRPMWVNPELNASDAFVAAWLPGTEGGGVADVLFTDKAGKVQHDFAGKLSYSWPRTAAQTTVNRGDADYNPLFAYGYGLTYKDKSKVGTLPEESGVP
B2: 278 (protein)
chain: STAIAQEGAAPAAMLHPEKWPRPATQRLIDPAVEKRVDALLKQLSVEEKVGQVIQGDIGTITPEDLRKYPLGSILAGGDSGPNGDDRAPPKEWLDLADAFYRVSLEKRPGHTPIPVLFGIDAVHGHGNIGSATIFPHNIALGMTRDPELLRRIGEVTAEEMAATGIDWTFAPALSVVRDDRWGRTYEGFSEDPEIVASYSPAIVEGVQGKYGSKDFMAPGRIVASAKHFLADGGTDQGRDQGDARISEDELIRIHNAGYPPAIDAGVLTVMASFSSWQGIKHHGHKQLLTDVLKGQMGFNGFIVGDWNAHDQVPGCTKFNCPTSLIAGLDMYMAADSWKQLYENTLAQVKDGTIPMARLDDAVRRILRVKVLAGLFEKPAPKDRPGLPGLETLGSPEHRAVGREAVRKSLVLLKNDKGTLPLSPKARVLVAGDGADNIGKQSGGWTISWQGTGNRNDEFPGATSILGGIRDAVADAGGSVEFDVAGQYKTKPDVAIVVFGEEPYAEFRGDVETLEYQPDQKQDLTLLKKLKDQGIPVVAVFLSGRPMWVNPELNASDAFVAAWLPGTEGGGVADVLFTDKAGKVQHDFAGKLSYSWPRTAAQTTVNRGDADYNPLFAYGYGLTYKDRSKVGTLPEESGVPAEARQN
B3: 282 (protein)
chain: STAIAQEGAAPAAILHPEKWPRPATQRLIDPAVEKRVDALLKQLSVEEKVGQVIQGDIGTITPEDLRKYPLGSILAGGDSGPNGDDRAPPKEWLDLADAFYRVSLEKRPGHTPIPVLFGIDAVHGHGNIGSATIFPHNIALGMTRDPELLRRIGEVTAEEMAATGIDWTFAPALSVVRDDRWGRTYEGFSEDPEIVASYSAAIVEGVQGKYGSKDFMAPGRIVASAKHFLADGGTDQGRDQGDARCSEDELIRIHNAGYPPAIDAGVLTVMASFSSWQGIKHHGHKQLLTDVLKGQMGFNGFIVGDWNAHDQVPGCTKFNCPTSLIAGLDMYMAADSWKQLYENTLAQVKDGTIPMARLDDAVRRILRVKVLAGLFEKPAPKDRPGLPGLETLGSPEHRAVGREAVRKSLVLLKNDKGTLPLSPKARVLVAGDGADNIGKQSGGWTISWQGTGNRNDEFPGATSILGGIRDAVADAGGSVEFDVAGQYKTKPDVAIVVFGEEPYAEFQGDVETLEYQPDQKQDLALLKKLKDQGIPVVAVFLSGRPMWVNPELNASDAFVAAWLPGTEGGGVADVLFTDKAGKVQHDFAGKLSYSWPRTAAQTTVNRGDADYNPLFAYGYGLTYKDKSKVGTLPEESGVPAEARQNAGIYFRAGALRLPGRFL
B4: 129 (protein)
chain: STAIAQEGAAPAAILHPEKWPRPATQRLIDPAVEKRVDALLKQLSVEEKVGQVIQGDIGTITPEDLRKYPLGSILAGGDSGPNGDDRAPPKEWLDLADAFYRVSLEKRPGHTPIPVLFGIDAVHGHGNIGSATIFPHNIALGATRDPELLRRIGEVTAEEMTATGIDWTFAPALSVVRDDRWGRTYEGFSEDPEIVAAYSPAIVEGVQGKFGSKDFMAPGRIVACAKHFLADGGTDQGRDQGDARISEDELIRIHNAGYPPAIDAGVLTVMASFSSWQGIKHHGHKQLLTDVLKGQMGFNGFIVGDWNAHDQVPGCTKFNCPTSLIAGLDMYMAADSWKQLYENTLAQVKDGTIPMARLDDAVRRILRVKVLAGLFEKPAPKDRPGLPGLETLGSPEHRAVGREAVRKSLVLLKNDKGTLPLSPKARVLVAGDGADNIGKQSGGWTISWQGTGNRNDEFPGATSILGGIRDAVADAGGSVEFDVAGQYKTKPDVAIVVFGEEPYAEFQGDVETLEYQPDQKQDLALLKKLKDQGVPVVAVFLSGRPMWVNPELNASDAFVAAWLPGTEGGGVADVLFTDKAGKVQHDFAGKLSYSWPRTAAQTTVNRGDADYNPLFAYGYGLTYKDKSKVGTLPEESGVPAEARQNAGIYFRAGALRLPGRFL
B5: 131 (protein)
chain: STAIAQEGAAPAAILHPEKWPRPATQRLIDPAVEKRVDALLKQLSVEEKVGQVIQGDIGTITPEDLRKYPLGSILAGGNSGPNGDDRAPPKEWLDLADAFYRVSLEKRPGHTPIPVLFGIDAVHGHGKIGSATIFPHNIALGATRDPELLRRIGEVTAEEMAATGIDWTFAPCLSVVRDDRWGRTYEGFSEDPEIVAAYSAAIVEGVQGKFGSKDFMAPGRIVASAKHFLADGGTDQGRDQGDARISEDELIRIHNAGYPPAIDAGVLTVMASFSSWQGIKHHGHKQLLTDVLKGQMGFNGFIVGDWNAHDQVPGCTKFNCPTSLIAGLDMYMAADSWKQLYENTLAQVKDGTIPMARLDDAVRRILRVKVLAGLFEKPAPKDRPGLPGLETLGSPEHRAVGREAVRKSLVLLKNDKGTLPLSPKARVLVAGDGADNIGKQSGGWTISWQGTGNRNDEFPGATSILGGIRDAVADAGGSVEFDVAGQYKTKPDVAIVVFGEEPYAEFQGDVETLEYQPDQKQDLALLKKLKDQGIPVVAVFLSGRPMWVNPELNASDAFVAAWLPGTEGGGVADVLFTDKAGKVQHDFAGKLSYSWPRTAAQTTVNRGDADYNPLFAYGYGLTYKDKSKVGTLPEESGVPAEARQNAGIYFRAGALRLPGRFL
B6: 133 (protein)
chain: STAIAQEGAAPAAILHPEKWPRPATQRLIDPAVEKRVDALLKQLSVEEKVGQVIQGDIGTITPEDLRKYPLGSILAGGDSGPNGDDRAPPKEWLDLADAFYRVSLEKRPGHTPIPVLFGIDAVHGHGKIGSATILPHNIALGMTRDPELLRRIGEVTAVEMTATGIDWTFAPCLSVVRDDRWGRTYEGFSEDPEIVASYSAAIVEGVQGKFGSKDFMAVGRIVASAKHFLADGGTDQGRDQGDARISEDELIRIHNAGYPPAIDAGVLTVMASFSSWQGIKHHGHKQLLTDVLKGQMGFNGFIVGDWNAHDQVPGCTKFNCPTSLIAGLDMYMAADSWKQLYENTLAQVKDGTIPMARLDDAVRRILRVKVLAGLFEKPAPKDRPGLPGLETLGSPEHRAVGREAVRKSLVLLKNDKGTLPLSPKARVLVAGDGADNIGKQSGGWTISWQGTGNRNDEFPGATSILGGIRDAVADAGGSVEFDVAGQYKTKPDVAIVVFGEEPYAEFQGDVETLEYQPDQKQDLALLKKLKDQGIPVVAVFLSGRPMWVNPELNASDAFVAAWLPGTEGGGVADVLFTDKAGKVQHDFAGKLSYSWPRTAAQTTVNRGDADYNPLFAYGYGLTYKDKSKVGTLPEESGVPAEARQNAGIYFRAGALRLPGRFL
B7: 130 (protein)
chain: STAIAQEGAAPAAILHPEKWPRPVTQRLIDPAVEKRVDALLKQLSVEEKVGQVIQGDIGTITPEDLRKYPLGSILAGGNSGPNGDDRAPPKEWLDLADAFYRVSLEKRPGHTPIPVLFGIDAVHGHGNIGSATIFPHNIALGMTRDPELLRRIGEVTAEEMAATGIDWTFAPALSVVRDDRWGRTYEGFSEDPEIVAAYSPAIVEGVQGKYGSKDFMAPGRSVACAKHFLADGGTDQGRDQGDARISEDELIRIHNAGYPPAIDAGVLTVMASFSSWQGIKHHGHKQLLTDVLKGQMGFNGFIVGDWNAHDQVPGCTKFNCPTSLIAGLDMYMAADSWKQLYENTLAQVKDGTIPMARLDDAVRRILRVKVLAGLFEKPAPKDRPGLPGLETLGSPEHRAVGREAVRKSLVLLKNDKGTLPLSPKARVLVAGDGADNIGKQSGGWTISWQGTGNRNDEFPGATSILGGIRDAVADAGGSVEFDVAGQYKTKPDVAIVVFGEEPYAEFQGDVETLEYQPDQKQDLALLKKLKDQGIPVVAVFLSGRPMWVNPELNASDAFVAAWLPGTEGGGVADVLFTDKAGKVQHDFAGKLSYSWPRTAAQTTVNRGDADYNPLFAYGYGLTYKDKSKVGTLPEESGVPAEARQNAGIYFRAGALRLPGRFL
B8: 132 (protein)
chain: STAIAQEGAAPAAILHPEKWPRPATQRLIDPAVEKRVDALLKQLSVEEKVGQVIQGDIGTITPEDLRKYPLGSILAGGDSGPNGDDRAPPQEWLDLADAFYRVSLEKRPGHTPIPVLFGIDAVHGHGKIGSATIFPHNIALGATRSPELLRRIGEVTAVEMAATGIDWTFAPALSVVRDDRWGRTYEGFSEDPEIVAAYSPAIVEGVQGKYGSKDFMAPGRAVACAKHFLADGGTDQGRDQGDARISEDELIRIHNAGYPPAIDAGVLTVMASFSSWQGIKHHGHKQLLTDVLKGQMGFNGFIVGDWNAHDQVPGCTKFNCPTSLIAGLDMYMAADSWKQLYENTLAQVKDGTIPMARLDDAVRRILRVKVLAGLFEKPAPKDRPGLPGLETLGSPEHRAVGREAVRKSLVLLKNDKGTLPLSPKARVLVAGDGADNIGKQSGGWTISWQGTGNRNDEFPGATSILGGIRDAVADAGGSVEFDVAGQYKTKPDVAIVVFGEEPYAEFQGDVETLEYQPDQKQDLALLKKLKDQGIPVVAVFLSGRPMWVNPELNASDAFVAAWLPGTEGGGVADVLFTDKAGKVQHDFAGKLSYSWPRTAAQTTVNRGDADYNPLFAYGYGLTYKDKSKVGTLPEESGVPAEARQNAGIYFRAGALRLPGRFL

Assay: High throughput cellobiose assay: fold improvement in cellobiase activity of CelA variants over a control enzyme (Tables 2A-2D, 3, 5, 6, 7)
Type: biochemical
Details: 3.3 g/l cellobiose, 55° C. and pH 5.3 (incubation overnight)

Molecule | Fold improvement over Control Variant No. 94 from Table 2B
B1 | ++++ (++++ = 1.1 to 1.5 fold improvement over Control No. 3, Variant No. 94)
B2 | ++++ (++++ = 1.1 to 1.5 fold improvement over Control No. 3, Variant No. 94)
B3 | ++++ (++++ = 1.1 to 1.5 fold improvement over Control No. 3, Variant No. 94)

Same assay, conditions: 3.3 g/l cellobiose, 55° C. and pH 6.0

Molecule | Fold improvement over Control Variant No. 5 from Table 2A
B4 | +++ (+++ = 6 to 13 fold improvement over control Variant No. 2)
B5 | ++ (++ = 1.1 to 6 fold improvement over control Variant No. 2)
B6 | ++ (++ = 1.1 to 6 fold improvement over control Variant No. 2)
B7 | +++ (+++ = 6 to 13 fold improvement over control Variant No. 2)
B8 | +++ (+++ = 6 to 13 fold improvement over control Variant No. 2)
